From US7524668B1, “Crystal of human beta secretase having monoclinic space group symmetry C2 and methods for crystallization thereof” (Elan Pharmaceuticals, Inc., priority 2001, dated 2009)

Target: T1, beta secretase (Homo sapiens, UniProt P56817)
T1 construct: a homogeneous preparation of beta secretase with V^40 as an N-terminus could be made; made in house; host or cells: CHO-K1 cells; secreted, purified, then cleaved in vitro with HIV-1 protease
Assay: beta secretase activity assay by HPLC analysis of the products
Type: biochemical
Conditions: CHO cell derived human beta secretase cleaved at F39-V40 by HIV-1 protease, compared with unprocessed/non-treated enzyme
Description: Cleavage of Beta Secretase by HIV Protease. It was reasoned that a homogeneous preparation of beta secretase with V^40 as an N-terminus could be made if conditions could be found to bring the cleavage to completion. The optimal conditions for cleavage were determined by examining the N-terminal sequence of beta secretase after incubation with HIV-1 protease in various conditions. These included a pH range of 4-7, urea concentrations of 0.5-3.0 M, and time increments of 15 minutes, up to 2 hours incubation at 37° C. […] The processed enzyme was separated from the other components of the reaction mixture by using an affinity column based on the synthetic peptide shown in FIG. 2 and dialysis.
Purified HIV-1 protease treated (and non-treated) beta secretase were assayed for activity by HPLC analysis of the products.

B1: HIV-1 protease treated beta secretase: CHO cell expressed recombinant human beta secretase proteolytically cleaved with HIV protease at the F39-V40 bond (SEQ ID NO:5) (protein)
chain: VEMVDNLRGKSGQGYYVEMTVGSPPQTLNILVDTGSSNFAVGAAPHPFLHRYYQRQLSSTYRDLRKGVYVPYTQGKWEGELGTDLVSIPHGPNVTVRANIAAITESDKFFINGSNWEGILGLAYAEIARPDDSLEPFFDSLVKQTHVPNLFSLQLCGAGFPLNQSEVLASVGGSMIIGGIDHSLYTGSLWYTPIRREWYYEVIIVRVEINGQDLKMDCKEYNYDKSIVDSGTTNLRLPKKVFEAAVKSIKAASSTEKFPDGFWLGEQLVCWQAGTTPWNIFPVISLYLMGEVTNQSFRITILPQQYLRPVEDVATSQDDCYKFAISQSSTGTVMGAVIMEGFYVVFDRARKRIGFAVSACHVHDEFRTAAVEGPFVTLDMEDCGYNIPQTDESHHHHHH
**Q.** For B1, which “more enzymatic activity than non-treated beta secretase” value is on record?
**A.** Its value is 10-20%.
